Results on 2 substances are retold here after paper PMC9882595.

This assay concerns the target Filamentous actin (F-actin) (rabbit) (UniProt P68135). Put plainly: co-sedimentation; high speed actin binding co-sedimentation: 10 uM Vt variant and 20 uM F-actin in actin polymerization buffer (10 mM Tris, 200 mM KCl, 10 mM imidazole, 2.5 mM MgCl2, 1 mM EGTA, 2 mM DTT, pH 7.5), room temperature 1 hr, 185,000 RCF for 60 min; fraction of Vt in the pellet by SDS-PAGE densitometry.

In turn, Vt E1015A (domain or fragment) came in with a reduction of F-actin binding relative to WT Vt of 2%. As for Vt E1021A (domain or fragment), the figure is 2%.
